# Test results as given in IntAct's records for PubMed 27456980.
# B1: Lysosomal cobalamin transport escort protein LMBD1 (Homo sapiens), Q9NUN5 (parent)
# chain: MATSGAASAELVIGWCIFGLLLLAILAFCWIYVRKYQSRRESEVVSTITAIFSLAIALITSALLPVDIFLVSYMKNQNGTFKDWANANVSRQIEDTVLYGYYTLYSVILFCVFFWIPFVYFYYEEKDDDDTSKCTQIKTALKYTLGFVVICALLLLVGAFVPLNVPNNKNSTEWEKVKSLFEELGSSHGLAALSFSISSLTLIGMLAAITYTAYGMSALPLNLIKGTRSAAYERLENTEDIEEVEQHIQTIKSKSKDGRPLPARDKRALKQFEERLRTLKKRERHLEFIENSWWTKFCGALRPLKIVWGIFFILVALLFVISLFLSNLDKALHSAGIDSGFIIFGANLSNPLNMLLPLLQTVFPLDYILITIIIMYFIFTSMAGIRNIGIWFFWIRLYKIRRGRTRPQALLFLCMILLLIVLHTSYMIYSLAPQYVMYGSQNYLIETNITSDNHKGNSTLSVPKRCDADAPEDQCTVTRTYLFLHKFWFFSAAYYFGNWAFLGVFLIGLIVSCCKGKKSVIEGVDEDSDISDDEPSVYSA
# partner: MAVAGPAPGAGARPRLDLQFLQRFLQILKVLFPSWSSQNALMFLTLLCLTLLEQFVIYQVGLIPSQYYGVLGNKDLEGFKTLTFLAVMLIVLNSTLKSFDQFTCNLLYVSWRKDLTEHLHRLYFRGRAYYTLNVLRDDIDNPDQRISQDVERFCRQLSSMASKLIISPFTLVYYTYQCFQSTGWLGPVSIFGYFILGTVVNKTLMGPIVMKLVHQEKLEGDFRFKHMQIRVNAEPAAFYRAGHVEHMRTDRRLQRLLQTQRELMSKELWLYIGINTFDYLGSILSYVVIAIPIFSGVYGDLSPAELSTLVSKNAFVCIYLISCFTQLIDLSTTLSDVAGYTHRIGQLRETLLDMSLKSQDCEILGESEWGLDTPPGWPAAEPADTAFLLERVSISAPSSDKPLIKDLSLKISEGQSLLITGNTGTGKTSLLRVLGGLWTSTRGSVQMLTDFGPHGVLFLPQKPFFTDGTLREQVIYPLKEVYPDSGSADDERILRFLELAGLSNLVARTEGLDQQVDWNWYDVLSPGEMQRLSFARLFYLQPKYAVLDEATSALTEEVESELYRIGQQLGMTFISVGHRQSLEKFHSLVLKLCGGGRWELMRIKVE
# Variants of: B1
# Conditions: with abcd4_human ABCD4, O14678
row,effect of a mutation on the interaction,Variant
1,with no effect,MATSGAASAELVIGWCIFGLLLLAILAFCWIYVRKYQSRRESEVVSTITAIFSLAIALITSALLPVDIFLVSYMKNQNGTFKDWANANVSRQIEDTVLYGYYTLYSVILFCVFFWIPFVYFYYEEKDDDDTSKCTQIKTALKYTLGFVVICALLLLVGAFVPLNVPNNKNSTEWEKVKSLFEELGSSHGLAALSFSISSLTLIGMLAAITYTAYGMSALPLNLIKGTRSAAAAAAENTEDIEEVEQHIQTIKSKSKDGRPLPARDKRALKQFEERLRTLKKRERHLEFIENSWWTKFCGALRPLKIVWGIFFILVALLFVISLFLSNLDKALHSAGIDSGFIIFGANLSNPLNMLLPLLQTVFPLDYILITIIIMYFIFTSMAGIRNIGIWFFWIRLYKIRRGRTRPQALLFLCMILLLIVLHTSYMIYSLAPQYVMYGSQNYLIETNITSDNHKGNSTLSVPKRCDADAPEDQCTVTRTYLFLHKFWFFSAAYYFGNWAFLGVFLIGLIVSCCKGKKSVIEGVDEDSDISDDEPSVYSA [Y232A;E233A;R234A;L235A]
2,with no effect,MATSGAASAELVIGWCIFGLLLLAILAFCWIYVRKYQSRRESEVVSTITAIFSLAIALITSALLPVDIFLVSYMKNQNGTFKDWANANVSRQIEDTVLYGYYTLYSVILFCVFFWIPFVYFYYEEKDDDDTSKCTQIKTALKYTLGFVVICALLLLVGAFVPLNVPNNKNSTEWEKVKSLFEELGSSHGLAALSFSISSLTLIGMLAAITYTAYGMSALPLNLIKGTRSAAYERLENTEDIEEVEQHIQTIKSKSKDGRPLPARDKRALKQFEERLRTLKKRERHLEFIENSWAAAACGALRPLKIVWGIFFILVALLFVISLFLSNLDKALHSAGIDSGFIIFGANLSNPLNMLLPLLQTVFPLDYILITIIIMYFIFTSMAGIRNIGIWFFWIRLYKIRRGRTRPQALLFLCMILLLIVLHTSYMIYSLAPQYVMYGSQNYLIETNITSDNHKGNSTLSVPKRCDADAPEDQCTVTRTYLFLHKFWFFSAAYYFGNWAFLGVFLIGLIVSCCKGKKSVIEGVDEDSDISDDEPSVYSA [W294A;T295A;K296A;F297A]
